# Assay results published in paper PMC4538835.
# Key:
# Assay in all cases: fluorescence polarisation
# [1] = target: TAMRA-labelled ERM_(38–68) W57L (human) (UniProt P41161)
# [2] = target: TAMRA-labelled ERM_(38–68) (human) (UniProt P41161)
# [3] = target: TAMRA-labelled ERM_(38–68) F47L/W57L (human) (UniProt P41161)
# [4] = target: MED25 ACID/PTOV domain (residues 391 to 548) (human) (UniProt Q71SY5)
Kd [1] [µM],Kd [2] [µM],Kd [3] [µM],IC50 [4] [µM],Substance
4.8,0.6,8.3,–,MED25 ACID/PTOV domain (residues 391 to 548) (from UniProt Q71SY5 391-548) (domain or fragment)
–,–,–,1.5,ERM_(38–68) peptide (unlabelled by dye) (from UniProt P41161 38-68)
